Experimental data reported in the supplement of paper PMC7877785.
± gives the uncertainty stated by the source.

Experiment: self-splicing fitness, log relative to wild type (ln ratio); higher = more splicing; Tetrahymena group I intron in knt gene, E. coli kanamycin selection, DiMSum; sequences stand for … in CUCUCU…GGAGGGAAAAGUUAUCAGGCAUGCACCUGGUAGCUAGUCUUUAAACCAAUAGAUUGCAUCGGUUUAAAAGGCAAGACCGUCAAAUUGCGGGAAAGGGGUCAACAGCCGUUCAGUACCAAGUCUCAGGGGAAACUUUGAGAUGGCCUUGCAAAGGGUAUGGUAAUAAGCUGACGGACAUGGUCCUAACCACGCAGCCAAGUCCUAAGUCAACAGAUCUUCUGUUGAUAUGGAUGCAGUUCACAGACUAAAUGUCGGUCGGGGAAGAUGUAUUCUUCUCAUAAGAUAUAGUCGGACCUCUCCUUAAUGGGAGCUAGCGGAUGAAGUGAUGCAACACUGGAGCCGCUGGGAACUAAUUUGUAUGCGAAAGUAUAUUGAUUAGUUUUGGAGUACUCGUGGUCG
How it was run: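 A randomised library covering all eight P1ex-region intron nucleotides was built with the intron in the knt kanamycin-resistance gene on pET-22b(+) and held in E. coli BL21(DE3). Cells were grown overnight at 37°C or 30°C on LB agar, with or without 25 μg/mL kanamycin, plus 100 μg/mL carbenicillin, 50 μM IPTG and 0.2% rhamnose, and pooled colonies were amplicon-sequenced on an Illumina HiSeq 2500. DiMSum fitness is the error-weighted combination of wild-type-normalised replicate fold changes, kanamycin versus none.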

| Sequence | self-splicing fitness (ln) (30 °C) | self-splicing fitness (ln) (37 °C) |
| --- | --- | --- |
| GAGGAGCAAUAUUACGGUCG | -1.43 ± 0.14 | -2.19 ± 0.29 |
| GAGGAGCAAUAUUACGGUUG | -3.94 ± 0.23 | -2.17 ± 0.2 |
| GAGGAGCAAUAUUACGUAGA | -4 ± 0.24 | -2.22 ± 0.19 |
| GAGGAGCAAUAUUACGUCAU | -2.41 ± 0.39 | -2.26 ± 0.4 |
| GAGGAGCAAUAUUACGUGUA |  | -3.62 ± 0.35 |
| GAGGAGCAAUAUUACGUUAC | -3.66 ± 0.25 | -3.09 ± 0.4 |
| GAGUAGCAAUAUUACGAAAC | -2.82 ± 0.32 | -2.56 ± 0.27 |
| GAGUAGCAAUAUUACGAACG | -2.36 ± 0.48 |  |
| GAGUAGCAAUAUUACGAAUU | -2.14 ± 0.22 | -1.36 ± 0.17 |
| GAGUAGCAAUAUUACGACUG | 0.34 ± 0.24 | -0.96 ± 0.21 |
| GAGUAGCAAUAUUACGAGAU | -4.02 ± 0.29 | -2.51 ± 0.28 |
| GAGUAGCAAUAUUACGAUAU | -2.42 ± 0.1 | -1.51 ± 0.14 |
| GAGUAGCAAUAUUACGCACC | -0.317 ± 0.25 | -1.31 ± 0.24 |
| GAGUAGCAAUAUUACGCGGC |  | -1.74 ± 0.45 |
| GAGUAGCAAUAUUACGGCCC | -0.847 ± 0.18 | 0.0966 ± 0.35 |
| GAGUAGCAAUAUUACGGCGA | -0.645 ± 0.16 | -0.441 ± 0.2 |
| GAGUAGCAAUAUUACGGCUC | -2.59 ± 0.37 | -2.51 ± 0.48 |
| GAGUAGCAAUAUUACGGGAC | -3.17 ± 0.35 | -1.41 ± 0.22 |
| GAGUAGCAAUAUUACGGGGG |  | -3.08 ± 0.35 |
| GAGUAGCAAUAUUACGGUCG | -1.15 ± 0.16 | -0.697 ± 0.19 |
| GAGUAGCAAUAUUACGUCCC | -0.805 ± 0.21 | -0.255 ± 0.23 |
| GAGUAGCAAUAUUACGUUGC | -3.27 ± 0.23 | -1.79 ± 0.27 |
| GAUAAGCAAUAUUACGACCA | -1.18 ± 0.14 | -0.0759 ± 0.21 |
| GAUAAGCAAUAUUACGACUG | -1.18 ± 0.2 | 0.14 ± 0.25 |
| GAUAAGCAAUAUUACGAGAG | -2.84 ± 0.26 | -3.04 ± 0.4 |

| Sequence | self-splicing fitness (ln) (30 °C) | self-splicing fitness (ln) (37 °C) |
| --- | --- | --- |
| GAUAAGCAAUAUUACGAUUC | -1.39 ± 0.14 | -1.41 ± 0.17 |
| GAUAAGCAAUAUUACGCAAA | -1.8 ± 0.16 | -1.49 ± 0.2 |
| GAUAAGCAAUAUUACGCCGU | -0.976 ± 0.15 | -0.545 ± 0.17 |
| GAUAAGCAAUAUUACGCGCG | -0.359 ± 0.096 | 0.119 ± 0.15 |
| GAUAAGCAAUAUUACGCGUU | -2.05 ± 0.14 | -2.95 ± 0.32 |
| GAUAAGCAAUAUUACGCUGU | -3.45 ± 0.18 | -2.18 ± 0.2 |
| GAUAAGCAAUAUUACGCUUU | -1.7 ± 0.14 | -2.17 ± 0.21 |
| GAUAAGCAAUAUUACGGAAU | -3.09 ± 0.14 | -2.28 ± 0.14 |
| GAUAAGCAAUAUUACGGCAU | -0.333 ± 0.06 | 0.188 ± 0.085 |
| GAUAAGCAAUAUUACGGCUC | -0.362 ± 0.17 | 0.29 ± 0.2 |
| GAUAAGCAAUAUUACGGGGU | -3.97 ± 0.25 | -1.74 ± 0.16 |
| GAUAAGCAAUAUUACGGUGU | -2.61 ± 0.12 | -1.59 ± 0.11 |
| GAUAAGCAAUAUUACGUACG | -1.67 ± 0.1 | -0.494 ± 0.11 |
| GAUAAGCAAUAUUACGUAGA | -3.26 ± 0.22 | -0.548 ± 0.14 |
| GAUAAGCAAUAUUACGUAGG | -3.01 ± 0.13 | -1.86 ± 0.15 |
| GAUAAGCAAUAUUACGUCAG | -4.56 ± 0.32 | -2.5 ± 0.23 |
| GAUAAGCAAUAUUACGUCGA | -1.54 ± 0.14 | -0.37 ± 0.13 |
| GAUAAGCAAUAUUACGUGUA | -2.1 ± 0.14 | -1.04 ± 0.14 |
| GAUAAGCAAUAUUACGUUAU | -2.81 ± 0.1 | -1.63 ± 0.1 |
| GAUAAGCAAUAUUACGUUCA | -0.732 ± 0.093 | -0.316 ± 0.12 |
| GAUAAGCAAUAUUACGUUCU | -1.8 ± 0.14 | -2.58 ± 0.29 |
| GAUAAGCAAUAUUACGUUUC | -3.88 ± 0.18 | -2.34 ± 0.2 |
| GAUCAGCAAUAUUACGACGC | -0.169 ± 0.077 | 0.198 ± 0.09 |
| GAUCAGCAAUAUUACGAGAG | -1.7 ± 0.082 | -0.506 ± 0.082 |
| GAUCAGCAAUAUUACGCAAC | -1.5 ± 0.13 | -0.455 ± 0.17 |

| Sequence | self-splicing fitness (ln) (30 °C) | self-splicing fitness (ln) (37 °C) |
| --- | --- | --- |
| GAUCAGCAAUAUUACGCACA | -0.0131 ± 0.12 | 0.404 ± 0.13 |
| GAUCAGCAAUAUUACGCAUC | -4.75 ± 0.31 | -3.11 ± 0.24 |
| GAUCAGCAAUAUUACGCUAC | -3.38 ± 0.48 | -1.62 ± 0.29 |
| GAUCAGCAAUAUUACGCUGC | -3.18 ± 0.19 | -2.18 ± 0.23 |
| GAUCAGCAAUAUUACGGCGA | -0.479 ± 0.15 | -0.214 ± 0.15 |
| GAUCAGCAAUAUUACGGGUU | -3.12 ± 0.26 | -2.88 ± 0.38 |
| GAUCAGCAAUAUUACGGUAG | -0.683 ± 0.084 | 0.269 ± 0.1 |
| GAUCAGCAAUAUUACGGUCA | -1.6 ± 0.14 | -0.459 ± 0.1 |
| GAUCAGCAAUAUUACGGUUG | -1.02 ± 0.053 | -0.343 ± 0.073 |
| GAUCAGCAAUAUUACGUAAC | -0.807 ± 0.093 | -0.643 ± 0.13 |
| GAUCAGCAAUAUUACGUACC | -0.223 ± 0.073 | -0.245 ± 0.099 |
| GAUCAGCAAUAUUACGUACU | -0.188 ± 0.067 | -0.441 ± 0.074 |
| GAUCAGCAAUAUUACGUCCU | -0.874 ± 0.1 | -0.0507 ± 0.092 |
| GAUCAGCAAUAUUACGUCGC | -1.11 ± 0.1 | 0.0313 ± 0.11 |
| GAUCAGCAAUAUUACGUGGA | -2.82 ± 0.26 | -1.22 ± 0.13 |
| GAUGAGCAAUAUUACGACAC | -1.25 ± 0.15 | -0.309 ± 0.16 |
| GAUGAGCAAUAUUACGAGAC | -2.67 ± 0.25 | -1.97 ± 0.3 |
| GAUGAGCAAUAUUACGAUAA | -3.49 ± 0.43 | -1.6 ± 0.33 |
| GAUGAGCAAUAUUACGCAGA | -3.98 ± 0.43 | -0.801 ± 0.19 |
| GAUGAGCAAUAUUACGCAUG | -1.61 ± 0.13 | -2.14 ± 0.2 |
| GAUGAGCAAUAUUACGCCAA | -2.45 ± 0.26 | -2.61 ± 0.29 |
| GAUGAGCAAUAUUACGCCGA |  | -1.44 ± 0.45 |
| GAUGAGCAAUAUUACGCGAG | -0.593 ± 0.16 | -0.578 ± 0.2 |
| GAUGAGCAAUAUUACGCGGC |  | -2.77 ± 0.38 |
| GAUGAGCAAUAUUACGCUCU | -3.24 ± 0.36 | -2.02 ± 0.44 |

| Sequence | self-splicing fitness (ln) (30 °C) | self-splicing fitness (ln) (37 °C) |
| --- | --- | --- |
| GAUGAGCAAUAUUACGCUGA | -3.11 ± 0.44 | -2.46 ± 0.38 |
| GAUGAGCAAUAUUACGCUUG | -3.15 ± 0.39 | -1.07 ± 0.3 |
| GAUGAGCAAUAUUACGCUUU | -3.32 ± 0.21 | -3.79 ± 0.33 |
| GAUGAGCAAUAUUACGGAGC | -3.9 ± 0.3 | -0.441 ± 0.13 |
| GAUGAGCAAUAUUACGGCGU | -0.735 ± 0.11 | -0.736 ± 0.13 |
| GAUGAGCAAUAUUACGGCUC | -0.914 ± 0.26 | -1.12 ± 0.32 |
| GAUGAGCAAUAUUACGGGCU | -2.22 ± 0.4 |  |
| GAUGAGCAAUAUUACGGGUU | -2.39 ± 0.17 | -2.6 ± 0.27 |
| GAUGAGCAAUAUUACGGUCA | -3.49 ± 0.47 | -0.516 ± 0.19 |
| GAUGAGCAAUAUUACGGUGG | -4.41 ± 0.23 | -1.73 ± 0.14 |
| GAUGAGCAAUAUUACGUACA | -2.09 ± 0.16 | -0.48 ± 0.13 |
| GAUGAGCAAUAUUACGUACG | -2.59 ± 0.35 | -1.55 ± 0.5 |
| GAUGAGCAAUAUUACGUUUC | -2.77 ± 0.31 | -2.57 ± 0.29 |
| GAUUAGCAAUAUUACGACUC | -0.282 ± 0.13 | 0.2 ± 0.16 |
| GAUUAGCAAUAUUACGAGCG | -1.27 ± 0.12 | 0.534 ± 0.12 |
| GAUUAGCAAUAUUACGAGGG | -2.81 ± 0.29 | -2.88 ± 0.29 |
| GAUUAGCAAUAUUACGAGUU | -2.53 ± 0.14 | -0.583 ± 0.11 |
| GAUUAGCAAUAUUACGAUAG | -2.37 ± 0.13 | -1.1 ± 0.16 |
| GAUUAGCAAUAUUACGAUGA | -1.8 ± 0.13 | 0.00201 ± 0.11 |
| GAUUAGCAAUAUUACGCACA | -0.341 ± 0.17 | -0.721 ± 0.12 |
| GAUUAGCAAUAUUACGCAGU | -3.28 ± 0.32 | -1.44 ± 0.19 |
| GAUUAGCAAUAUUACGCCUU | -0.529 ± 0.11 | -0.304 ± 0.12 |
